# Assay results taken from article PMC9050003, “N- and C-terminal regions of the small heat shock protein IbpA from Acholeplasma laidlawii competitively govern its oligomerization pattern and chaperone-like activity†” (RSC Advances, 2020).
# Experiments:
# [1] = target: AlIbpAΔC14 (Acholeplasma laidlawii); experiment: SEC; Superdex 200 10/300, 0.5 ml min^−1, 1 mg ml^−1 protein, 100 μl injected; 50 mM NaCl, 50 mM KCl, 50 mM K2HPO4 pH 7.4; 30 °C; fractions as areas under the peaks; peaks also viewed by TEM
# [2] = target: AlIbpASEPΔN12 (Acholeplasma laidlawii) (UniProt A9NFB2); experiment: SPR; BIAcore T200; His6-AlIbpA proteins immobilised on Ni2+-loaded NTA chip (FC2, about 2000 RU); His6-TnrA20 on FC1 as control, response difference FC2 − FC1; ADH 1.0 mg ml^−1 injected at 10 μl min^−1; 10 mM Na2HPO4, 150 mM NaCl, pH 7.4; KD calculated from the binding curve slopes
# [3] = target: full-length recombinant AlIbpA (small heat shock protein IbpA from Acholeplasma laidlawii), His6-tagged (Acholeplasma laidlawii) (UniProt A9NFB2); experiment: as above
# [4] = target: AlIbpAN11N12 (Acholeplasma laidlawii) (UniProt A9NFB2); experiment: as above
# [5] = target: AlIbpAΔN25 (Acholeplasma laidlawii) (UniProt A9NFB2); experiment: as above
# [6] = target: AlIbpASEPΔN25 (Acholeplasma laidlawii) (UniProt A9NFB2); experiment: as above
# [7] = target: AlIbpAΔN12 (Acholeplasma laidlawii) (UniProt A9NFB2); experiment: as above
# [8] = target: AlIbpAΔC14 (Acholeplasma laidlawii); experiment: as above
# [9] = target: AlIbpAΔN25C14 (Acholeplasma laidlawii); experiment: SEC; Superdex 200 10/300, 0.5 ml min^−1, 1 mg ml^−1 protein, 100 μl injected; 50 mM NaCl, 50 mM KCl, 50 mM K2HPO4 pH 7.4; 30 °C; fractions as areas under the peaks; peaks also viewed by TEM
# [10] = target: AlIbpAΔN12C14 (Acholeplasma laidlawii); experiment: as above
# [11] = target: the molecule itself; experiment: as above
# [12] = target: the molecule itself; experiment: as above; remark: listed apart in the source
molecule,measurement,setting,value
AlIbpAΔC14 (domain or fragment),fraction of the protein in I peak of the elution profile,[1],7%
same,fraction of the protein in II peak of the elution profile,[1],86%
alcohol dehydrogenase (enzyme),Kd,[2],7200 nM
same,Kd,[3],1600 nM
same,Kd,[4],500 nM
same,Kd,[5],2200 nM
same,Kd,[6],3200 nM
same,Kd,[7],3500 nM
same,Kd,[8],700 nM
AlIbpAΔN25C14 (domain or fragment),fraction of the protein in I peak of the elution profile,[9],1%
same,fraction of the protein in II peak of the elution profile,[9],50%
AlIbpAΔN12C14 (domain or fragment),fraction of the protein in I peak of the elution profile,[10],1%
same,fraction of the protein in II peak of the elution profile,[10],86%
"full-length recombinant AlIbpA (small heat shock protein IbpA from Acholeplasma laidlawii), His6-tagged (natural protein, UniProt A9NFB2 1-137, looked up, small heat shock protein IbpA (AlIbpA) of Acholeplasma laidlawii PG8, full length; Legends call it AlIbpA-His6, the methods say the His6 tag is N-terminal; In solution a mixture of about 24-mer globules, fibrils and agglomerates; also called AlIbpA-His6; His6-IbpA; source: E. coli BL21(DE3), purified (Ni-NTA); also in E. coli BL21 pET-IbpA cells, cross-linked in the cells, crude cell extract; not …) MLSLLNKNRSFFDDFFEDFNVLNPVTTSNLMRTDIKETQNGYSLSVELPGFKKEDVKVSLEDGYLTIEAHTSKNSETKDQATKYIRKERYEGTMKRSYYVGNLHLDEINGTFENGMLHIELPKETKKEPEKRYLELK",stoichiometry N,[11],~24
same,fraction of the protein in I peak of the elution profile,[12],23 ± 10.3%
same,fraction of the protein in II peak of the elution profile,[12],74 ± 17.8%
"AlIbpAN11N12 (natural protein, Acholeplasma laidlawii, UniProt A9NFB2 1-137, looked up, AlIbpA of Acholeplasma laidlawii PG8 with F11F12 substituted by N11N12, complete N-terminus length kept; source: E. coli BL21(DE3), purified (Ni-NTA); not shown: His6, N-terminal, kept) MLSLLNKNRSNNDDFFEDFNVLNPVTTSNLMRTDIKETQNGYSLSVELPGFKKEDVKVSLEDGYLTIEAHTSKNSETKDQATKYIRKERYEGTMKRSYYVGNLHLDEINGTFENGMLHIELPKETKKEPEKRYLELK",stoichiometry N,[11],~24
same,fraction of the protein in I peak of the elution profile,[12],8 ± 1.7%
same,fraction of the protein in II peak of the elution profile,[12],88 ± 12.2%
"AlIbpASEP (natural protein, Acholeplasma laidlawii, UniProt A9NFB2 1-137, looked up, AlIbpA of Acholeplasma laidlawii PG8 with the C-terminal LEL motif substituted by SEP (L134 to S134, L136 to P136), length of the C-terminus kept; source: E. coli BL21(DE3), purified (Ni-NTA); not shown: His6, N-terminal, kept) MLSLLNKNRSFFDDFFEDFNVLNPVTTSNLMRTDIKETQNGYSLSVELPGFKKEDVKVSLEDGYLTIEAHTSKNSETKDQATKYIRKERYEGTMKRSYYVGNLHLDEINGTFENGMLHIELPKETKKEPEKRYSEPK",fraction of the protein in I peak of the elution profile,[12],18 ± 4.4%
same,fraction of the protein in II peak of the elution profile,[12],56 ± 7.8%
"AlIbpAΔN12 (domain or fragment, Acholeplasma laidlawii, UniProt A9NFB2 13-137, looked up, AlIbpA of Acholeplasma laidlawii PG8 lacking the first 12 amino acid residues; source: E. coli BL21(DE3), purified (Ni-NTA); not shown: His6, N-terminal, kept) DDFFEDFNVLNPVTTSNLMRTDIKETQNGYSLSVELPGFKKEDVKVSLEDGYLTIEAHTSKNSETKDQATKYIRKERYEGTMKRSYYVGNLHLDEINGTFENGMLHIELPKETKKEPEKRYLELK",fraction of the protein in I peak of the elution profile,[12],88 ± 17.1%
same,fraction of the protein in II peak of the elution profile,[12],10 ± 1.1%
"AlIbpASEPΔN12 (domain or fragment, Acholeplasma laidlawii, UniProt A9NFB2 13-137, looked up, AlIbpA of Acholeplasma laidlawii PG8 lacking 12 N-terminal amino acids and with LEL substituted by SEP (L134S, L136P); source: E. coli BL21(DE3), purified (Ni-NTA); not shown: His6, N-terminal, kept) DDFFEDFNVLNPVTTSNLMRTDIKETQNGYSLSVELPGFKKEDVKVSLEDGYLTIEAHTSKNSETKDQATKYIRKERYEGTMKRSYYVGNLHLDEINGTFENGMLHIELPKETKKEPEKRYSEPK",fraction of the protein in I peak of the elution profile,[12],2 ± 0.8%
same,fraction of the protein in II peak of the elution profile,[12],59 ± 10.1%
"AlIbpAΔN25 (domain or fragment, Acholeplasma laidlawii, UniProt A9NFB2 26-137, looked up, AlIbpA of Acholeplasma laidlawii PG8 with 25 N-terminal amino acids removed (lacks both (W/F)(D/F)PF-like motifs); source: E. coli BL21(DE3), purified (Ni-NTA); not shown: His6, N-terminal, kept) TTSNLMRTDIKETQNGYSLSVELPGFKKEDVKVSLEDGYLTIEAHTSKNSETKDQATKYIRKERYEGTMKRSYYVGNLHLDEINGTFENGMLHIELPKETKKEPEKRYLELK",fraction of the protein in I peak of the elution profile,[12],77 ± 21.3%
same,fraction of the protein in II peak of the elution profile,[12],12 ± 2.4%
"AlIbpASEPΔN25 (domain or fragment, Acholeplasma laidlawii, UniProt A9NFB2 26-137, looked up, AlIbpA of Acholeplasma laidlawii PG8 lacking 25 N-terminal amino acids and with LEL substituted by SEP (L134S, L136P); source: E. coli BL21(DE3), purified (Ni-NTA); not shown: His6, N-terminal, kept) TTSNLMRTDIKETQNGYSLSVELPGFKKEDVKVSLEDGYLTIEAHTSKNSETKDQATKYIRKERYEGTMKRSYYVGNLHLDEINGTFENGMLHIELPKETKKEPEKRYSEPK",fraction of the protein in I peak of the elution profile,[12],69 ± 15.5%
same,fraction of the protein in II peak of the elution profile,[12],23 ± 3.2%
